Our source for the IC50, TZM-bl pseudovirus neutralization values is patent US20160264649A1.

Holding throughout (test): cell-based or functional assay
The target in experiment [1] is HIV-1 92RW020 Env (HIV-1).
Experiment [2] deals with HIV-1 AC10 Env (HIV-1).
Experiment [3] deals with HIV-1 ADA Env (HIV-1).
Experiment [4] deals with HIV-1 CAAN Env (HIV-1).
The target in experiment [5] is HIV-1 CAP45 Env (HIV-1).
The target in experiment [6] is HIV-1 DU156 Env (HIV-1).
Experiment [7] concerns the target HIV-1 DU422 Env (HIV-1).
In experiment [8] the target is HIV-1 Du172 Env (HIV-1).
In experiment [9] the target is HIV-1 JR-CSF Env (wild-type) (HIV-1) (UniProt P20871).
Experiment [10] concerns the target HIV-1 JR-CSF Env I309A (HIV-1) (UniProt P20871).
Experiment [11] deals with HIV-1 JR-CSF Env Y318A (HIV-1) (UniProt P20871).
The target of experiment [12] is HIV-1 JR-FL Env E168K (HIV-1).
Experiment [13] addresses HIV-1 PVO.4 Env (HIV-1).
Experiment [14] has as its target HIV-1 REJ04541 Env (HIV-1).
Experiment [15] has as its target HIV-1 THRO.18 Env (HIV-1).
Experiment [16] deals with HIV-1 TR0.11 Env (HIV-1).
The target of experiment [17] is HIV-1 ZM214 Env (HIV-1).
Experiment [18] has as its target HIV-1 ZM233 Env (HIV-1).
Experiment [19] addresses HIV-1 ZM249 Env (HIV-1).
Experiment [20] deals with MuLV envelope (control pseudovirus).

B1: 1503_H05 (PG16) (TCN-119) (antibody, V domains shown)
VH: QEKLVESGGGVVQPGGSLRLSCLASGFTFHKYGMHWVRQAPGKGLEWVALISDDGMRKYHSDSMWGRVTISRDNSKNTLYLQFSSLKVEDTAMFFCAREAGGPIWHDDVKYYDFNDGYYNYHYMDVWGKGTIVTVSS
VL: QSALTQPASVSGSPGQTITISCNGTRSDVGGFDSVSWYQQSPGKAPKVMVFDVSHRPSGISNRFSGSKSGNTASLTISGLHIEDEGDYFCSSLTDRSHRIFGGGTKVTVLG
Regarding B1, the IC50, TZM-bl pseudovirus neutralization in experiment [1] was 0.02 µg/mL; in experiment [2], under 0.01 µg/mL; in experiment [3], 0.003 µg/mL; in experiment [4], 13.5 µg/mL; in experiment [5] it was under 0.01 µg/mL; in [6], under 0.01 µg/mL. The IC50, TZM-bl pseudovirus neutralization in experiment [7] was 0.71 µg/mL; in experiment [8], under 0.01 µg/mL; in [9] it was 0.001 µg/mL; in [10], over 1 µg/mL; in experiment [11], over 1 µg/mL; in [12], 0.002 µg/mL. The IC50, TZM-bl pseudovirus neutralization in experiment [13] was 11 µg/mL; in [14] it was 0.22 µg/mL; in experiment [15] it was 4.12 µg/mL; in [16], 4.3 µg/mL; in [17], over 25 µg/mL; in experiment [18], under 0.01 µg/mL. For the same molecule, the IC50, TZM-bl pseudovirus neutralization in [19] is under 0.01 µg/mL; in experiment [20] it was over 25 µg/mL.

B2: 1469_M23 (PG16) (TCN-118) (antibody, V domains shown)
VH: QEKLVESGGGVVQPGGSLRLSCLASGFTFHKYGMHWVRQAPGKGLEWVALISDDGMRKYHSDSMWGRVTISRDNSKNTLYLQFSSLKVEDTAMFFCAREAGGPIWHDDVKYYDFNDGYYNYHYMDVWGKGTTVTVSS
VL: QSALTQPASVSGSPGQTITISCNGTRSDVGGFDSVSWYQQSPGRAPKVMVFDVSHRPSGISNRFSGSKSGNTASLTISGLHIEDEGDYFCSSLTDRSHRIFGGGTKLTVLG
For B2, the IC50, TZM-bl pseudovirus neutralization in experiment [1] was 0.05 µg/mL; in experiment [2] it was under 0.01 µg/mL; in experiment [3] it was 0.005 µg/mL; in [4], 17.7 µg/mL; in experiment [5], under 0.01 µg/mL; in [6], under 0.01 µg/mL. In addition, the IC50, TZM-bl pseudovirus neutralization in experiment [7] is 0.97 µg/mL; in experiment [8] it was under 0.01 µg/mL; in [9], 0.002 µg/mL; in experiment [10] it was over 1 µg/mL; in experiment [11], over 1 µg/mL; in experiment [12], 0.005 µg/mL. Moreover, the IC50, TZM-bl pseudovirus neutralization in [13] was 21.2 µg/mL; in experiment [14] it was 0.39 µg/mL; in experiment [15], 7.01 µg/mL; in experiment [16], 7.52 µg/mL; in experiment [17], over 25 µg/mL; in experiment [18] it was under 0.01 µg/mL. In addition, the IC50, TZM-bl pseudovirus neutralization in experiment [19] was under 0.01 µg/mL; in [20], over 25 µg/mL.

B3: 1489_I13 (PG16) (TCN-120) (antibody, V domains shown)
VH: QEQLLESGGGVVQPGGSLRLSCLASGFTFHKYGMHWVRQAPGKGLEWVALISDDGMRKYHSNSMWGRVTISRDNSKNTLYLQFSSLKVEDTAMFFCAREAGGPIWHDDVKYYDFNDGYYNYHYMDVWGKGTTVTVSS
VL: QSALTQPASVSGSPGQTITISCNGTSSDVGGFDSVSWYQQSPGKAPKVMVFDVSHRPSGISNRFSGSKSGNTASLTISGLHIEDEGDYFCSSLTDRSHRIFGGGTKVTVLG
B3: the IC50, TZM-bl pseudovirus neutralization was 0.03 µg/mL in experiment [1]; under 0.01 µg/mL in experiment [2]; 0.008 µg/mL in experiment [3]; 24.9 µg/mL in experiment [4]; under 0.01 µg/mL in [5]; under 0.01 µg/mL in experiment [6]. For the same molecule, the IC50, TZM-bl pseudovirus neutralization in [7] was 1.87 µg/mL; in experiment [8], under 0.01 µg/mL; in experiment [9], 0.002 µg/mL; in experiment [10], over 1 µg/mL; in experiment [11] it was over 1 µg/mL; in experiment [12], 0.005 µg/mL. Besides, the IC50, TZM-bl pseudovirus neutralization was 20.6 µg/mL in [13]; 0.34 µg/mL in experiment [14]; 7.41 µg/mL in experiment [15]; 10.9 µg/mL in experiment [16]; over 25 µg/mL in experiment [17]; under 0.01 µg/mL in experiment [18]. Besides, the IC50, TZM-bl pseudovirus neutralization was under 0.01 µg/mL in experiment [19] and over 25 µg/mL in [20].

B4: 1456_A12 (PG16) (TCN-117) (antibody, V domains shown)
VH: HEQLVEAGGGVVQPGGSLRLSCLASGFTFHKYGMHWVRQAPGKGLEWVALISDDGMRKYHSDSMWGRVTISRDNSKNTLYLQFSSLRVEDTAMFFCAREAGGPIWHDDVKYYDFNDGYYNYHYMDVWGKGTKVTVSS
VL: QSALTQPASVSGSPGQTITISCNGTSRDVGGFDSVSWYQQSPGKAPKVMVFDVSHRPSGMSNRFSGSKSGNTASLTISGLHIEDEGDYFCSSLTDRSHRIFGGGTKLTVLG
As for B4, the IC50, TZM-bl pseudovirus neutralization was 0.05 µg/mL in experiment [1]; under 0.01 µg/mL in experiment [2]; 0.005 µg/mL in [3]; 10.6 µg/mL in [4]; under 0.01 µg/mL in experiment [5]; under 0.01 µg/mL in [6]. Moreover, the IC50, TZM-bl pseudovirus neutralization in [7] is 0.36 µg/mL; in experiment [8] it was under 0.01 µg/mL; in experiment [9], 0.001 µg/mL; in [10], over 1 µg/mL; in [11] it was over 1 µg/mL; in experiment [12], 0.003 µg/mL. For the same molecule, the IC50, TZM-bl pseudovirus neutralization in [13] is 10.4 µg/mL; in [14], under 0.01 µg/mL; in [15], 2.08 µg/mL; in experiment [16], 3.05 µg/mL; in experiment [17] it was over 25 µg/mL; in experiment [18], under 0.01 µg/mL. The figures for the IC50, TZM-bl pseudovirus neutralization in [19] and in [20] were under 0.01 µg/mL and over 25 µg/mL, respectively.
